{"source": "patent US20210113678A1", "about": "(ENTEROME S A, published 2021)", "key": {"[1]": {"molecular_target": "T1, HLA-A*0201 molecule on human T2 cells (human)", "T1 construct": "read out with anti-HLA-A2 antibody BB7.2-PE; also called HLA-A2", "assay": "T2 cells expressing HLA-A*0201, anti-HLA-A2-PE, FACS"}, "[2]": {"molecular_target": "T1, HLA-A*0201 molecule on human T2 cells", "assay": "T2 cells expressing HLA-A*0201, anti-HLA-A2-PE, FACS (Example 8)"}, "[3]": {"molecular_target": "T1, HLA-A*0201 molecule on human T2 cells", "assay": "T2 cells expressing HLA-A*0201, anti-HLA-A2-PE, FACS (Example 9)"}, "[4]": {"molecular_target": "T1, HLA-A*0201 molecule on human T2 cells", "assay": "T2 cells expressing HLA-A*0201, anti-HLA-A2-PE, FACS (Example 9)", "remark": "listed apart in the source"}, "[5]": {"molecular_target": "T1, HLA-A*0201 molecule on human T2 cells", "assay": "T2 cells expressing HLA-A*0201, anti-HLA-A2-PE, FACS", "remark": "listed apart in the source"}, "[6]": {"molecular_target": "T1, HLA-A*0201 molecule on human T2 cells", "assay": "T2 cells expressing HLA-A*0201, anti-HLA-A2-PE, FACS (Example 7)"}}, "data": [{"binder": "FLPFGFILPV", "note": "[IL13RA2-L]", "values": [{"measurement": "In vitro binding affinity (relative to reference peptide HIV pol 589-597)", "setting": "[1]", "result": 0.3}, {"measurement": "In vitro binding affinity (relative to reference peptide HIV pol 589-597)", "setting": "[2]", "result": 0.3}]}, {"binder": "LMLGEFLKL", "note": "[peptide 2M]", "values": [{"measurement": "Concentration of peptide that induces 20% of HLA-A2 expression", "setting": "[3]", "result": 2.87, "unit": "µM"}, {"measurement": "In vitro binding affinity (relative to reference peptide HIV pol 589-597)", "setting": "[3]", "result": 3.38}, {"measurement": "mean relative fluorescence intensity at 0.1 µM peptide", "setting": "[4]", "result": "0.76 % of HIV peptide"}, {"measurement": "mean relative fluorescence intensity at 1 µM peptide", "setting": "[4]", "result": "8.37 % of HIV peptide"}, {"measurement": "mean relative fluorescence intensity at 10 µM peptide", "setting": "[4]", "result": "48.5 % of HIV peptide"}, {"measurement": "mean relative fluorescence intensity at 100 µM peptide", "setting": "[4]", "result": "75.2 % of HIV peptide"}]}, {"binder": "FMLGEFLKL", "note": "[BIRC5-B1]", "values": [{"measurement": "mean relative fluorescence intensity at 1.5625 µM peptide", "setting": "[5]", "result": "1.9 % of HIV peptide"}, {"measurement": "mean relative fluorescence intensity at 3.125 µM peptide", "setting": "[5]", "result": "22.3 % of HIV peptide"}, {"measurement": "mean relative fluorescence intensity at 6.25 µM peptide", "setting": "[5]", "result": "36.1 % of HIV peptide"}, {"measurement": "mean relative fluorescence intensity at 25 µM peptide", "setting": "[5]", "result": "61.7 % of HIV peptide"}, {"measurement": "mean relative fluorescence intensity at 50 µM peptide", "setting": "[5]", "result": "77.1 % of HIV peptide"}, {"measurement": "mean relative fluorescence intensity at 100 µM peptide", "setting": "[5]", "result": "117 % of HIV peptide"}, {"measurement": "Concentration of peptide that induces 20% of HLA-A2 expression", "setting": "[1]", "result": 2.7, "unit": "µM"}, {"measurement": "In vitro binding affinity (relative to reference peptide HIV pol 589-597)", "setting": "[1]", "result": 0.8}, {"measurement": "Concentration of peptide that induces 20% of HLA-A2 expression", "setting": "[3]", "result": 1.24, "unit": "µM"}, {"measurement": "In vitro binding affinity (relative to reference peptide HIV pol 589-597)", "setting": "[3]", "result": 1.46}, {"measurement": "mean relative fluorescence intensity at 0.1 µM peptide", "setting": "[4]", "result": "1.07 % of HIV peptide"}, {"measurement": "mean relative fluorescence intensity at 1 µM peptide", "setting": "[4]", "result": "17.4 % of HIV peptide"}, {"measurement": "mean relative fluorescence intensity at 10 µM peptide", "setting": "[4]", "result": "65.1 % of HIV peptide"}, {"measurement": "mean relative fluorescence intensity at 100 µM peptide", "setting": "[4]", "result": "102 % of HIV peptide"}]}, {"binder": "LTLGEFLKL", "note": "[BIRC5-H]", "values": [{"measurement": "mean relative fluorescence intensity at 1.5625 µM peptide", "setting": "[5]", "result": "1.7 % of HIV peptide"}, {"measurement": "mean relative fluorescence intensity at 3.125 µM peptide", "setting": "[5]", "result": "1.4 % of HIV peptide"}, {"measurement": "mean relative fluorescence intensity at 6.25 µM peptide", "setting": "[5]", "result": "10.8 % of HIV peptide"}, {"measurement": "mean relative fluorescence intensity at 25 µM peptide", "setting": "[5]", "result": "9.8 % of HIV peptide"}, {"measurement": "mean relative fluorescence intensity at 50 µM peptide", "setting": "[5]", "result": "18.9 % of HIV peptide"}, {"measurement": "mean relative fluorescence intensity at 100 µM peptide", "setting": "[5]", "result": "35.6 % of HIV peptide"}, {"measurement": "Concentration of peptide that induces 20% of HLA-A2 expression", "setting": "[1]", "result": 53, "unit": "µM"}, {"measurement": "In vitro binding affinity (relative to reference peptide HIV pol 589-597)", "setting": "[1]", "result": 16.1}, {"measurement": "Concentration of peptide that induces 20% of HLA-A2 expression", "setting": "[3]", "result": 95.9, "unit": "µM"}, {"measurement": "In vitro binding affinity (relative to reference peptide HIV pol 589-597)", "setting": "[3]", "result": 113}, {"measurement": "mean relative fluorescence intensity at 0.1 µM peptide", "setting": "[4]", "result": "0 % of HIV peptide"}, {"measurement": "mean relative fluorescence intensity at 1 µM peptide", "setting": "[4]", "result": "0 % of HIV peptide"}, {"measurement": "mean relative fluorescence intensity at 10 µM peptide", "setting": "[4]", "result": "3.52 % of HIV peptide"}, {"measurement": "mean relative fluorescence intensity at 100 µM peptide", "setting": "[4]", "result": "20.5 % of HIV peptide"}]}, {"binder": "FLPFGFILV", "note": "[IL13RA2-B]", "values": [{"measurement": "mean relative fluorescence intensity at 1.5625 µM peptide", "setting": "[5]", "result": "14.8 % of HIV peptide"}, {"measurement": "mean relative fluorescence intensity at 3.125 µM peptide", "setting": "[5]", "result": "15.7 % of HIV peptide"}, {"measurement": "mean relative fluorescence intensity at 6.25 µM peptide", "setting": "[5]", "result": "40.8 % of HIV peptide"}, {"measurement": "mean relative fluorescence intensity at 25 µM peptide", "setting": "[5]", "result": "86.5 % of HIV peptide"}, {"measurement": "mean relative fluorescence intensity at 50 µM peptide", "setting": "[5]", "result": "113 % of HIV peptide"}, {"measurement": "mean relative fluorescence intensity at 100 µM peptide", "setting": "[5]", "result": "128 % of HIV peptide"}, {"measurement": "Concentration of peptide that induces 20% of HLA-A2 expression", "setting": "[1]", "result": 2.9, "unit": "µM"}, {"measurement": "In vitro binding affinity (relative to reference peptide HIV pol 589-597)", "setting": "[1]", "result": 0.3}, {"measurement": "In vitro binding affinity (relative to reference peptide HIV pol 589-597)", "setting": "[6]", "result": 0.49}, {"measurement": "Concentration of peptide that induces 20% of HLA-A2 expression", "setting": "[2]", "result": 2.9, "unit": "µM"}, {"measurement": "In vitro binding affinity (relative to reference peptide HIV pol 589-597)", "setting": "[2]", "result": 0.3}]}, {"binder": "ALPFGFILV", "note": "[comparative peptide 1A9V]", "values": [{"measurement": "In vitro binding affinity (relative to reference peptide HIV pol 589-597)", "setting": "[6]", "result": 3.06}, {"measurement": "Concentration of peptide that induces 20% of HLA-A2 expression", "setting": "[2]", "result": 36.5, "unit": "µM"}, {"measurement": "In vitro binding affinity (relative to reference peptide HIV pol 589-597)", "setting": "[2]", "result": 3.6}]}, {"binder": "FLPFGFILM", "note": "[peptide 1F9M]", "values": [{"measurement": "In vitro binding affinity (relative to reference peptide HIV pol 589-597)", "setting": "[6]", "result": 2.62}]}, {"binder": "ILPFGFILA", "note": "[peptide 1I9A]", "values": [{"measurement": "In vitro binding affinity (relative to reference peptide HIV pol 589-597)", "setting": "[6]", "result": 2.22}]}]}
